Experimental data from article PMC13036084, “Cryo-EM structure of Chlamydomonas reinhardtii Photosystem I complexed with cytochrome c6” (Nature Communications, 2026).
Positions count from the first letter of the chain named. Numbers in names are those of the source.

Biological target: T1, PSAF subunit of Chlamydomonas reinhardtii Photosystem I (Chlamydomonas reinhardtii, UniProt P12356 63-227)
T1 construct: PSAF, Photosystem I subunit, Chlamydomonas reinhardtii; the transit peptide segment is included in the numbering of the PDB data; numbers count on: the mature protein; Stood in the experiment as a subunit of the PSI complex m2
T1 sequence (looked up): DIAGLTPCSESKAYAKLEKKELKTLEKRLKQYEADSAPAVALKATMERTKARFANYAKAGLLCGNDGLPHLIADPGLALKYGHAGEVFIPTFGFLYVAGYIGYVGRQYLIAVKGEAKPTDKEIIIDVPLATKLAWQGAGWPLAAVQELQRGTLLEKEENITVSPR
Test: cross-linking; non-activated Cyt c6 (4 μM) and PSI (40 μg Chl/mL) in 30 mM HEPES/KOH pH 7.5, 1 mM ascorbate, 0.1 mM DAD, 3 mM MgCl2, 0.03% α-DDM with 5 mM EDC and 10 mM sulfo-NHS, 45 min, room temperature, dark; quenched with 50 mM Tris pH 8.0; SDS-PAGE and Western blot with anti-Cyt c6
Settings: both partners purified

B1: Chlamydomonas reinhardtii cytochrome c6 E69Q/E70Q (natural protein)
chain: ADLALGAQVFNGNCAACHMGGRNSVMPEKTLDKAALEQYLDGGFKVESIIYQVENGKGAMPAWADRLSQQEIQAVAEYVFKQATDAAWKY
modifications: heme group (heme protein)
notes: cytochrome c6, Chlamydomonas reinhardtii; also called Cyt c6 (E69Q/E70Q); E69Q/E70Q double mutant; source: E. coli BL21, co-transformed with pEC86 (Ccm genes), purified (DEAE anion exchange, size exclusion)
binding result: binds

B2: Chlamydomonas reinhardtii cytochrome c6 E71Q (natural protein)
chain: B1 chain with Q69E, Q70E, E71Q
modifications: heme group (heme protein)
notes: cytochrome c6, Chlamydomonas reinhardtii; also called Cyt c6 (E71Q); source: E. coli BL21, co-transformed with pEC86 (Ccm genes), purified (DEAE anion exchange, size exclusion)
binding result: binds
